These results are taken from the supplement of paper PMC12042874.

± gives the uncertainty stated by the source.

A short description of this data set: amyloid nucleation score (Sup35N fusion, yeast selection) (log enrichment); library NNK3; higher = more nucleation; inactive = no reads after selection. In a few lines:
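Sup35N fusions to peptides of 20 random codons were expressed in psi-negative yeast, induced 24 hours with 100 μM copper sulfate, and grown 7 days at 30°C on medium lacking adenine and uracil. Input and output plasmid inserts were sequenced by Illumina. The nucleation score is the DiMSum log enrichment of output over input reads, centred on the mode score of non-aggregating sequences. Sequences with under 100 input reads were excluded.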
TAQFDNSCSGLQHVVVNK: the amyloid nucleation score result is “inactive”.

For the substance TASTQSPYHFYCRV, the amyloid nucleation score result is “inactive”.

As to TCAIPHLKCSFLLYFGQYGC, the amyloid nucleation score entry is “inactive”.

As to TCFLVFTCVVGV, the amyloid nucleation score entry is “inactive”.

For TCHLPAQSLLFIRCSTKAGV, the amyloid nucleation score result is “inactive”.

TCKCGSALK displayed an amyloid nucleation score of 0.384 ± 0.21.

In the case of TCLWARSPVLEDFEYGLHGS, the amyloid nucleation score result is “inactive”.

With TCMYNMVVGSLVGRWNC, the amyloid nucleation score was found to be 1.4 ± 0.13.

For TCRITP, the amyloid nucleation score result was “inactive”.

Turning to TCSDDCFLMKWYEDIRSVVT, the amyloid nucleation score entry was “inactive”.

Take TCSRLVDQFNTFGTVY: the amyloid nucleation score entry was “inactive”.

As for TCTEGMGCPMSKAARVLLTR, the amyloid nucleation score entry is “inactive”.

Regarding TCVWRHAWQSGAHRVVRLAW, the amyloid nucleation score result is “inactive”.

Turning to TCYSIERFACY, the amyloid nucleation score result is “inactive”.

For TDCFGLMSSALP, the amyloid nucleation score entry was “inactive”.

Turning to TDELYWLKDFLYGFYNMKSP, the amyloid nucleation score entry was “inactive”.

TDFFG: the amyloid nucleation score entry was “inactive”.

TDFPYK: the amyloid nucleation score is -0.12 ± 0.53.

In the case of TDRFNAFSWAVASGFVDFDG, the amyloid nucleation score result was “inactive”.

As to TDSPLRLKRDYSPNSFCRSG, the amyloid nucleation score was determined as 0.005 ± 1.1.

For the substance TDTRNINV, the amyloid nucleation score result was “inactive”.

On to TDTTSIMNWEDRPISSLKVD, for which the amyloid nucleation score entry was “inactive”.

Turning to TELFALGYRSFCARTCATHD, the amyloid nucleation score result was “inactive”.

For TEPIWWEFGCKYHGYISARS, the amyloid nucleation score entry is “inactive”.

For the substance TESCVDSMVAFHNLPYLFRL, the amyloid nucleation score entry was “inactive”.

With TESPNYLYRI, the amyloid nucleation score entry is “inactive”.

With TFALFLGWIMPTSGGDTGYY, the amyloid nucleation score was found to be 0.037 ± 0.39.

Regarding TFFSYSRTALGATYYSLIIC, the amyloid nucleation score result is “inactive”.

Substance TFGAVTCMSRCVKSSYNLKW yielded an amyloid nucleation score of 1.35 ± 0.088.

The substance TFIFDFAAFMNMVNGFSVLG displayed an amyloid nucleation score of 2.23 ± 0.088.

As for TFIFVLVSC, the amyloid nucleation score result is “inactive”.

As to TFLALHNNQQLV, the amyloid nucleation score entry is “inactive”.

With TFLYFNVLRIHFVASS, the amyloid nucleation score result was “inactive”.

As for TFNRWCLVFLLMHNVLVCEW, the amyloid nucleation score was 0.185 ± 0.33.

With TFRYCTVLMFAVSFWQFHRC, the amyloid nucleation score result was “inactive”.

TFSNYALNVSAYRVDIFEML gave an amyloid nucleation score of 0.979 ± 0.14.

For TFSPVGMISLYCYGT, the amyloid nucleation score is -0.065 ± 0.45.

Regarding TFVNLFIVPGKGQSVTGGCE, the amyloid nucleation score amounted to 1.45 ± 0.13.

For TFYVLGLDYTWLSATSGDGS, the amyloid nucleation score entry is “inactive”.

TGARMVLCIFGIYSMYTLHN: the amyloid nucleation score was found to be 1.99 ± 0.074.

For the substance TGDRIWTIGFFGEPNGVLKG, the amyloid nucleation score entry was “inactive”.

With TGMVCNLTWVLYLMLMNRTF, the amyloid nucleation score entry is “inactive”.

In the case of TGSSTDLSNYNGLGYLLNNS, the amyloid nucleation score was 0.479 ± 0.2.

Regarding TGVNFGRLLLISRSVLGVC, the amyloid nucleation score entry is “inactive”.

With TGYPGPIKFRRIFYANYYSF, the amyloid nucleation score entry is “inactive”.

In the case of THANEGRCYMVSSVMEVSPL, the amyloid nucleation score result is “inactive”.

In turn, THESATSYLISGFGIGFIWC came in with an amyloid nucleation score of 1.49 ± 0.089.

With THFNGEFWALSTVCMWGGRV, the amyloid nucleation score was 0.06 ± 0.69.

For the substance THFQEPLSESGDRCLDDGYL, the amyloid nucleation score entry was “inactive”.

Consider THHWKFGSNPSFR, for which the amyloid nucleation score entry is “inactive”.

Take THLSVEFS: the amyloid nucleation score entry is “inactive”.

For the substance TIACS, the amyloid nucleation score result is “inactive”.

With TIASVKLEFALPPSHLPLGV, the amyloid nucleation score result is “inactive”.

For TICRCRWGIRPYLALCIHYS, the amyloid nucleation score result was “inactive”.

Regarding TIEQCGLS, the amyloid nucleation score entry was “inactive”.

On to TIFLSSRGVILYTVSCYKFV, for which the amyloid nucleation score result is “inactive”.

For the substance TIGFIGWWGVFYDTDWLRI, the amyloid nucleation score is -0.566 ± 1.4.

For the substance TIGSAWFGKLGDGLALFGLF, the amyloid nucleation score entry was “inactive”.

In the case of TILWFSSNETFYAGIHRSCP, the amyloid nucleation score entry is “inactive”.

Turning to TIRYRIQVNSCHESVIAGYT, the amyloid nucleation score result was “inactive”.

For the substance TISLHFLGTADKPYLSWVAN, the amyloid nucleation score entry is “inactive”.

In turn, TITFSWLAYAVGMQPDNNEV showed an amyloid nucleation score of 1.26 ± 0.12.

As to TKGTKDRPPYTVVRLQYGNS, the amyloid nucleation score entry is “inactive”.

For the substance TKNRVYQWMSLSGM, the amyloid nucleation score was found to be 0.828 ± 0.12.

TKRCKYCTKGNVQTHTWVAF had an amyloid nucleation score of 0.466 ± 0.23.

TKTISGHCPVLMSVFWSMAL: the amyloid nucleation score result was “inactive”.

As for TKYCSLPHDQDCVHKFITTV, the amyloid nucleation score entry is “inactive”.

Take TLARQWSDP: the amyloid nucleation score entry is “inactive”.

Regarding TLCSHYYVV, the amyloid nucleation score result was “inactive”.

As for TLFDRFWVLWNEKWESSGKY, the amyloid nucleation score result was “inactive”.

Regarding TLGGEMQFVKMFCLLYFNCG, the amyloid nucleation score result was “inactive”.

On to TLGLAVFDNSMDRWYEDVKK, for which the amyloid nucleation score result was “inactive”.

In the case of TLGVGP, the amyloid nucleation score entry is “inactive”.

For TLMGLESVSVYFSVGFLSVY, the amyloid nucleation score result was “inactive”.

Substance TLNIFVVSFNDYWVSVIIKD returned an amyloid nucleation score of 2.46 ± 0.066.

Regarding TLSFCWWRFMLVCRGVGGGR, the amyloid nucleation score result was “inactive”.

For TLTYTKYYHFNCNRTLYESV, the amyloid nucleation score was found to be 0.665 ± 0.16.

In turn, TLVCEDIVYRDLLITSFLYS yielded an amyloid nucleation score of 0.589 ± 0.087.

TLVVMEIIQLLSFSHGPFI: the amyloid nucleation score result is “inactive”.

On to TLWYSYHINVPYCL, for which the amyloid nucleation score result is “inactive”.

As to TLYRGDKTRNFAMGIKLCMT, the amyloid nucleation score result was “inactive”.

With TMCHGDDLRNHCYSETNSFR, the amyloid nucleation score result was “inactive”.

With TMGGNVIV, the amyloid nucleation score entry is “inactive”.

In turn, TMGVSLHHIKGPFWSVIYCI yielded an amyloid nucleation score of 0.481 ± 0.32.

Take TMHKGLVVMF: the amyloid nucleation score entry was “inactive”.

In turn, TMLRFIYSYDAFRR registered an amyloid nucleation score of 0.931 ± 0.22.

Regarding TMNLCS, the amyloid nucleation score result is “inactive”.

With TMSGFYYNSFIRYNLAL, the amyloid nucleation score entry was “inactive”.

For TMVTTNEIT, the amyloid nucleation score was 0.092 ± 0.29.

The substance TMYIAHGELGFIRNHLDISR gave an amyloid nucleation score of 1.04 ± 0.11.

In the case of TNLVAIKYLFT, the amyloid nucleation score was -0.022 ± 0.48.

For the substance TNMHYMSHYLETTPFTTGMV, the amyloid nucleation score entry is “inactive”.

In the case of TNPLYYRS, the amyloid nucleation score result is “inactive”.

TNSGGFRMVIYFFR: the amyloid nucleation score entry was “inactive”.

Turning to TNTSFTIVSYTSYR, the amyloid nucleation score is 0.696 ± 0.27.

TNYYFALLGYYHLFSSTGHR displayed an amyloid nucleation score of 2.66 ± 0.064.

Take TNYYFQNV: the amyloid nucleation score result is “inactive”.

Take TPCYRFNSRYRMTFM: the amyloid nucleation score entry is “inactive”.
